This is an account of results in publication PMC6650801.

This test concerns the target EGFR–eGFP fusion protein (epidermal growth factor receptor fused to the F64L, S65T mutant of GFP) (UniProt P00533).

Substance “murine EGF (epidermal growth factor) (from UniProt P01132 977-1029) (ligand)” returned a half recovery time T1/2 of EGFR–eGFP fluorescence in stripe FRAP on F1-10 cells, before and 2.5 min after 50 nM EGF of 6.4 s.
